# Experimental data reported in article PMC2663797 (The journal of physical chemistry. B, 2008).
# Biological target: the molecule itself
# Test: SDS-PAGE
protein,measurement,value
"porin OmpF from E. coli (wild type) (natural protein, UniProt P02931 23-362, looked up) AEIYNKDGNKVDLYGKAVGLHYFSKGNGENSYGGNGDMTYARLGFKGETQINSDLTGYGQWEYNFQGNNSEGADAQTGNKTRLAFAGLKYADVGSFDYGRNYGVVYDALGYTDMLPEFGGDTAYSDDFFVGRVGGVATYRNSNFFGLVDGLNFAVQYLGKNERDTARRSNGDGVGGSISYEYEGFGIVGAYGAADRTNLQEAQPLGNGKKAEQWATGLKYDANNIYLAANYGETRNATPITNKFTNTSGFANKTQDVLLVAQYQFDFGLRPSIAYTKSKAKDVEGIGDVDLVNYFEVGATYYFNKNMSTYVDYIINQIDSDNKLGVGSDDTVAVGIVYQF",stoichiometry N,3
